This is an account of results in article PMC10967716.

The term stoichiometry N denotes a count of units in the complex or per binding partner.

The test concerns the target α-Methylacyl-CoA racemase from Mycobacterium tuberculosis, wild-type (M. tuberculosis) (UniProt O06543). Put plainly: SEC.

Regarding “α-Methylacyl-CoA racemase from Mycobacterium tuberculosis, wild-type (from UniProt O06543 1-360) (enzyme)”, the stoichiometry N was found to be 2.
